Experimental data as given in the DeepSol protein solubility set.

experiment: soluble on expression in E. coli; label from the status in PepcDB or PDB records

Row | Sequence | soluble on expression in E. coli
1 | MNFHFTLDNDRKRRRSLSIDIDINFNDKAPGTSSDNEQRAPKRRADEEAVNAVPKNLLTTSSTFARAVIPAAPAISSANNKMAPQSVTATAKTTTNRGKVSGEGEYQLIKNEVLCSPYGNQYEVLEFLGKGTFGQVVKAWKKGTSEIVAIKILKKHPSYARQGQIEVSILSRLSNENSEEFNFVRAFECFNHKSHTCLVFEMLEQNLYDFLKQNKFMPLPLNAIRPILFQVLTALLKLKSLGLIHADLKPENIMLVDPQQQPYRVKVIDFGSASHRSKAVTNTYLQSRYYRAPEIILGLPFNESIDMWSLGCVIAELFLGWPLYPGSSEYDQIRFIIQTQGLPPTSMLESASKLHRFFKEVKSESPNHTNVGGSYYRLKTVEEYEASSSTAKSKETRKYIFNVIDDISRVCYGFESDPVEHLCDRIDRQEFVDVLKKMLVLNPDFRITPAEGLESKFVTMTHINGYNFANYVHEAHKRMEICRKPGPAMATPYRAANVATPITPVEKPPAPKLQQPMIAVLPQLNQIAATNIPPVPTQPDLTNLMHHYSQMAAATGSAATAAQFFYQPLPPAPLFQYAQLHHPFAARPPHFLSLATPSHMVPQFVPVPIMDPSMLQGQWPPGAAQQFAVLANDIMRVPAPQGINQMFASTPQTFSLPQFLSSSIPSATTAFNGNAPNIPFPEENSSWALGTAAQQQQQQAQRAQSMINGNVKVKPLAAQPKKNSPAPSVITLSSDEDSNGAGSSNSGSTTRTGAVNPVRNDTLPMGNTIKTEDILVPPTTFDGQLPNLQYFPGSHLFDPKTVAGLLPNPFLDTSHIPRAFN | not soluble
2 | MNFIFDIDGTICFDGCSIDSSIKQRLFKLRQANHNVIFASARPIRDLLPVIPEFADDTLIGGNGSIISKNGQIEIVSVINEHDISLIKKIIKKYQLSYIIDDKFNYASNLDSNNELYQRIDPDGKAQSLDMDEIRNPIKAILLNIDNKDFDMIAHQLVSQSHGIELIRHYSESYIDVTARGVDKYTTIQYILGTNSDYIAFGNDHNDVHMLEHASQGYFVTNQFIEHTSFFKNKNITVIDDTIYAICEVLDRYL | not soluble
3 | MNHDIPALALGPQGEVMAHAIDACVHCGFCLPACPTYALLGDEMDSPRGRIVLMKEVLEGSLELEDAAPHLDRCLGCQGCVTACPSGVPYGELITSFRGWSEPQRERTPLDRAKRYAILKALPAPKLFSVAARVGQFAKPLAPALPAALKAPLDLLPEHVPAMQPQPRVTPARGQRRGRVAFLAGCAQQALTPNFNAATLRVLSRNGIEVVIPEGQGCCGAAALHTGARDEALRLVRANLAAFNPDEYDAILSNAAGCGAGLKEYPVVLHGLPDEAQAQAFAAKVQDISEYLAGLLRDGELAPLMPTREPVKVAYHDACHLAHAQGVRSAPRELLRAIPGVTLTEIPEGDLCCGSAGTYNLEQPELANQLGQRKAKNILGTQPDLIASGNIGCHTQIQSHVRRQGSPVPVMHTVEVLDLAYRGELLEHHHHHH | not soluble
4 | MNIAALLSGGVDSSVVVHLLCEQGYKPTLFYIKIGMDGAEYMDCSAEEDIEMSTAIARKYGLSLEVVDLHKEYWENVAAYAIDKIKKGLTPNPDVMCNKLIKFGCFEQQVGKNFDFTATGHYATTIRQDGKTWLGTAKDPVKDQTDFLAQIDYLQVSKLMFPIGGLMKQEVREIASRAGLPSARRKDSQGICFLGKINYNDFVRRFLGEREGAIIELETGKKVGTHRGYWFHTIGQRKGLGLSGGPWFVIKKDVEENIIYVSHGYGVETQFGSEFRINDFHFITENPWKDAGKEIDITFKIRHTPEFTKGKLVQEEGGQFRILSSEKLQGIAPGQFGVIYDEEAGICVGSGEITRLEHHHHHH | soluble
5 | MNIDTKYHGTVAVNEQDIVHFPHGLPGFADEKRFVLLPLADTPFVILQSVETPALGFVLIEPFSYFPTYEFELDEATVEQLDIESERDVAVYVILTVADPFHETTANLQAPVVINARKRFGKQVILANTPYKTKHRLFPEKVAT | not soluble
6 | MNIFAILNHMGVFFKEEPVRQLHAALEKAGYEVVYPVDDKDLIKMIEMNPRICGVLFDWDKYSLELCERISQINEKLPVHAFANEQSTLDISLTDLRLNVSFFEYALGMADDI | not soluble
7 | MNIFTEAAKLEEQNCPFAMAQIVDSRGSTPRHSAQMLVRADGSIVGTIGGGMVERKVIEESLQALQERKPRLFHGRMARNGADAVGSDCGGAMSVFISVHGMRPRLVLIGAGHVNRAIAQSAALLGFDIAVADIYRESLNPELFPPSTTLLHAESFGAAVEALDIRPDNFVLIATNNQDREALDKLIEQPIAWLGLLASRRKVQLFLRQLREKGVAEEHIARLHAPVGYNIGAETPQEIAISVLAEILQVKNNAPGGLMMKPSHPSGHQLVVIRGAGDIASGVALRLYHAGFKVIMLEVEKPTVIRCTVAFAQAVFDGEMTVEGVTARLATSSAEAMKLTERGFIPVMVDPACSLLDELKPLCVVDAILAKQNLGTRADMAPVTIALGPGFTAGKDCHAVIETNRGHWLGQVIYSGCAQENTGVPGNIMGHTTRRVIRAPAAGIMRSNVKLGDLVKEGDVIAWIGEHEIKAPLTGMVRGLLNDGLAVVGGFKIGDIDPRGETADFTSVSDKARAIGGGVLEALMMLMHQGVKATKEVLEVALEHHHHHH | not soluble
8 | MNIFVNMRIMVAHTPDPDDAFMFYGMFEGKIRTSNQYEQVIKDIETLNKESKEGKYEVTAISANGYVQVRDLYKLTRSGASFGISYGPIVVARNEIDLSKSRMGVPGFMTSSYLLYRMFGPEAKEYVEIKFDEIPDAILTGKVDAGILIHDEQLTFQKRGLKEVFDIYSAWKSYAGNLPIPLGFNAIRKDLDEDTVNKFLYDFERSIRYAMAHEEEAVKYAMKYARYTDLDLERRFVRMYVNELSIDFGDTGRKALELYYNRAAGKGLIPPFKPEIV | not soluble
9 | MNIIILAGGEGKRMGGVDKAAVAVDGRTLLDILLSQLDPEDDVVVVSPAIIDGITTVCEEPPLGGPVAGIEAGLNSFEHAHEFTAILAVDAPYSAAMLPLLQAQIGKADVAVTLAADGWVQPLCALWRSGSLEAVIHSLGETRNRPAKALLKQAGHIVEVGGDGTEKDYDTVAELEVLGNVTLPKAHLEHHHHHH | not soluble
10 | MNIIKANVAAPDARVAITIARFNQFINDSLLDGAVDALTRIGQVKDDNITVVWVPGAYELPLATEALAKSGKYDAVVALGTVIRGGTAHFEYVAGGASNGLASVAQDSGVPVAFGVLTTESIEQAIERAGTKAGNKGAEAALTALEMINVLKAIKA | not soluble
11 | MNIIKGNIASPLGFSADGLHAGFKKKKLDFGWIVSEVPANVAGVFTTNKVIAAPLKLTKNSIEKSGKMQAIVVNSGIANSCTGKQGEKDAFKMQQLAANKLQIQPEYVGVASTGVIGKVMPMSILKNGFSKLVKNGNADDFAKAILTTDTHTKTCVVNEEFGSDTVTMAGVAKGSGMIHPNLATMLAFITCDANISSQTLQQALKDVVEVTFNQITVDGDTSTNDMVLVMSNGCTNNNEIKKDSEDYYKFKQMLLYIMTDLAKSIARDGEGASKLIEVTVKGAKESSAARMIAKSVVGSSLVKTAIFGEDPNWGRIIAAAGYAKTYFDINQVDIFIGRIPVLIRSSPVKYDKEEIQEIMSAEEISIQLDLHQGNCEGQAWGCDLSYDYVKINALYTTLEHHHHHH | not soluble
12 | MNIISQNTAFGGMQGVFSHQSETLKSEMTFAVYVPPKAIHEPCPVVWYLSGLTCTHANVMEKGEYRRMASELGLVVVCPDTSPRGNDVPDELTNWQMGKGAGFYLDATEEPWSEHYQMYSYVTEELPALIGQHFRADMSRQSIFGHSMGGHGAMTIALKNPERFKSCSAFAPIVAPSSADWSEPALEKYLGADRAAWRRYDACSLVEDGARFPEFLIDQGKADSFLEKGLRPWLFEEAIKGTDIGLTLRMHDRYDHSYYFISTFMDDHLKWHAERLG | not soluble
13 | MNIPMYIVDAFTDRPFAGNPAAVCLLPQPVGDEWMQRVAAEMNLSETAFLVPHEGGYRLRWFTPKAEVDLCGHATLASAHVLWERGERRADEAIAFFTNSGVLTAINNDGWIRLDFPNETPVRVESPPAALVGALPAEPLFIGRNRFDYLVEIGSEQEVRRLTPDFRLLQEVDARGIIVTSRSAAEEMDFVSRAFFPALGVPEDPVTGSAHCCLGPYWADKLGKTTLVGYQASARGGIVRVMVSGERVQLEGKAVTVLKGDLAAEAAFGLQPI | not soluble
